These results are taken from the nanobody polyreactivity screen of Harvey et al. (2022).

This data set can be described thus: yeast display, Sf9 membrane polyspecificity reagent, FACS + sequencing; frameworks hold sequencing errors. The method in brief: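 Nanobodies came from a synthetic yeast display library in Saccharomyces cerevisiae BJ5465, induced with galactose for 36–48 hours and stained for 1 hour at 4 °C with 10% biotinylated, detergent-solubilized Sf9 membrane reagent. Cells were enriched on streptavidin microbeads and then FACS-sorted, with low and high (top ~1%) gates set on anti-HA fluorescence for expression and streptavidin fluorescence for reagent binding. Each polyreactivity label reflects the gate a clone came from. Genes were amplified by colony PCR, sequenced by MiSeq 2 × 250 and filtered by CDR length.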
Consider “QVQLVESVGGLVQAGGSLRLSCAASGRIFYLYAMGWYRQEPGKERELVAVISYGGDRTSYADSVKGRFTISRDNAKNTVYLQMNSLKPEDTAVYYCAARPFYRGYYYWGQGTQVTVSS”, for which the “polyreactivity (PSR sort gate)” value is “high polyreactivity”. Take “QVQLVESGGGLVQAGGSLRLSCAASGSNFYPYAMGWYRQAPGKERELVAAITGTGGSTYYADSVKGRFTISRDNAKNTVYLQMNSLKPEDTAVYYCATRRRYYYSRYNYWGQGTQVTVSS”: the “polyreactivity (PSR sort gate)” value is “high polyreactivity”. With “QVQLVESGGGLVQAGGSLRLSCAASGSTFQTYAMGWFRQAPGQERELVAAITSGGSTNYADSVKGRFTISRDNAKNTVSLQMNSLKPEDTAVYYCNKKSRRQYDYWGQGTQVTVSS”, the “polyreactivity (PSR sort gate)” value is on record as “low polyreactivity”. Turning to “QVQLVESGGGLVQAGGSRLSCAASGLIFISYTMGWYRQAPGKERELVAAIDSSGGNTYYADSVKGRFTISRDNAKNTVYLQMNSLKPDDTAVYYCNAAWPYKSVEYCGQGTQVTVSS”, the “polyreactivity (PSR sort gate)” value is “low polyreactivity”. As to “QVQLVESGGGLVQAGGTLRLSCAASGYIFVIYAMGWYRQAPGKEREWVAAISWSGDTTYYADSVKGRFTISRDNAKNTVYLQMNSLKPEDTAVYYCNAETAYYQVDYWGQGTQVTVSS”, the “polyreactivity (PSR sort gate)” value was “low polyreactivity”. Then “QVHLVESGGGLVQAGGSLRLSCAASGGTFDKNAMGWYSQAPGKESEFVAAITYGGGSTYYADSVKGRFTISRDNAKNTVYLQMTSLKPEDSAVYYCAVAIITYPYATGSSYDYWGQGTQVTVSS”, with “low polyreactivity”. Then “QVQLVESGGGLVQAGGSLRLSCAASGNIFAYNAMGWYRQAPGKERELVASIRYSGGSTYYADSVKGRFTISRDNAKNTVYLQMNSLKPEDTAVYYCAKRGYSSYRTYNYWGQGTQVTVSS”, with “high polyreactivity”; and “QVQLVESGGGLVQAGGSLRLSCPASGFNFRYYAIGWYRQAPGKERQLVAAISRIGGSTNYADSVKGRFTISRDNAKNTVYLQLNSLKPEDTAVYYCAVAEGYSPAYLRDYWGQGSQVTVSS”, with “high polyreactivity”. Then “QVQLVESGGGLVQAGGSLRLSCAASGFILNWYAMGWYRQAPGKERELVAAISWTTSDTYYADSVKGRFTISRDNAKNTVYLQMNSLKPEDTAVYYCNAKFYAYYVTFVLHYDYWGQGTQVTVSS”, with “low polyreactivity”; and “QVQLVESGRGLVQAVGSLRLSSAASGSIFMWYTMGCYRQAPGKERELVAAISKSGGRTYYADSVKGRFTISRDNAKNTVYLQMNSMKPEDTAVYYCAKLYPYDSPVPDGHQFDYWGQGTQVTVSS”, with “high polyreactivity”. Turning to “QVQLVESGGGLVQAGGSLRLSCAASGFIFADYTMGWSRQAPGQERELVAVITSGGSTHYADSVKGRFTISRDNAKNTVYLQMNSLKPEDTAVYYCAARSYRPTRGDYWGQGTKVTVSS”, the “polyreactivity (PSR sort gate)” value is recorded as “high polyreactivity”. With “QVQLVESGGGLVQAGGSLRLSCAASGRIFTSNTMGWYRQAAGKEGELVAAITSSGGSMYYADSVKGRFTISRDNAKNTVYLQMNSLKPEDTAVYYCAADTIGYHYWYDYWGQGTQVTVSS” the entry was “low polyreactivity”. Then “QVQLVESGGGLVQAGGSLRLSCAASGSIFSGNPMGWYRQAPGKERELVAAIDWSGDSTYYADSVKGRFTISRDNAKNTVYLQMNSLKPEDTAVYYCNTVSFSWGYSAYDYWGQGTQVTVSS”, with “low polyreactivity”. Then “QVQLVESGGGLVQAGGSLRLSCASSGLTFYPYAMGWYRQAPGKERELVAAISKSGGRTSYADSVKGRFTISRDNAKNTVYLQMNSLKPEDTAVYYCNARSGTFGYSTYGYWGQGTQETVSS”, with “high polyreactivity”. Turning to “QVQLVASGGGLVQAGGSLRLSCAASGSTFYYNAMGWSRQAPGKERELVAVISTSDGSTNYADSVKRRFTISSDNAKNTVYLQMISLKPEDTAVYYCAADYSESRRFDYWGQGTQVTVSS”, the “polyreactivity (PSR sort gate)” value is on record as “low polyreactivity”. Then “QVQIEESGGGLVQAGRSLRLSCAASGFIFGSNAMGWYRQAPGKETELVAAISRSGGSTYYADSVKGRFTISRDYAKNTVYVQMNSLKPEDTAVYYGASYLYKTRYLTEYDYWGHGTQVTVSS”, with “high polyreactivity”; and “QVQLVESGGGLVQAGGSLRVSCAASGGTFCNYAMGWNRQAPGKERELVAAITSGGGSTYYADSVKGRFTISRDIAKNTVYLQMNSLKPEDTAVYYCAARRSSYGYWGQGTQVTVSS”, with “high polyreactivity”. As to “QVHLVESGGGLVQAGGSLRLSCAASGLTLNSYVMGWYRQAPGKERELVARITSGGRTNYADSVKGRFTISRDNAKNTVYLQMNSVKPEDTAVYYCAVRSLSYARGGRSDFKVGYWGQGTQVTVSS”, the “polyreactivity (PSR sort gate)” value was “low polyreactivity”. With “QVQLVESGGGLVQAGGSLRLSCAASGSTFFTYTMGWYRQAPGKERELVATITTSGGSTYYADSVKGRFTISRDNAKNTVYLQMNSLKPEDTAVYYCAADWDPGYYVQYGYDYWGQGTQVTVSS” the entry was “low polyreactivity”; with “QVQLVESGGGLVQAGGSLRLSCAASGFIFKSNAMGWYRQAPGKERELVAAITRSGGRTYYADSVKGRFTISRDNAKNTVYLQMNSLKPEDTAVYYCNAKLYTGSFDYWGQGTQVTVSS”, “high polyreactivity”; with “QVQLVESGGGLVQAGGSLRLSCAASGFTFSAYTMGWYRKAPGKERELVAAISWGGGSTFYADSVKGRFTISRDNAKNTVYLQMNSLKPEDTAVYYCNKQYVHPYDYWGQGTQVTLSS”, “high polyreactivity”. Take “QVQLVESGGGLVQAGGRLRLSCAASGTIFYYNAMGWYRQAPGKERELVAVISQSGTSTYYADSVKGRFTNSRDNAKNTVYLQMNSLKPEDTAVYYCAADSRHGSIMDYWGLGTQVTVSS”: the “polyreactivity (PSR sort gate)” value is on record as “low polyreactivity”. With “QVQLVESGGGLVQAGGSLRLSCAASGFIFTKNTMGWYRQAPGKEREWVAAISRGGSTYYADSVKGRFTISRDNAKNTVYLQMNSLKPEDTAVYYCAALYNSTKYGVYTNGPQAEYDYWGQGTQVTVSS” the entry was “high polyreactivity”; with “QVQLVESGGGLVQAGGSLRLSCAASGSTFGDYAMGGYRQAPGKERELVAANDQNGGSTYYADSVKGRITISRDNAKNTVYLQMNSLIPEDTAVYYCAAESIYDWYDYGGQGTQVTVSS”, “low polyreactivity”; with “QVQLVESGGGLVQAGCSLRLSCAASGSTLFWYDMGWYRQAPGKERELVAAINWTGGSTYADSVKGRFTISRDNAKNTVYLQMNSLKPEDTAVYYCNADEYWASGYDPYDYWGQGTQVTVSS”, “low polyreactivity”.

With “QVQVVESGGGIVHAEGSLRLSCAPSGLTFPVYAMVWYRQAPRKERELVAAISKSGGNTYYADSVKGRFTISRDNAKNTVYLQMNSLKPEDTAVYYCAAGYLSGNYARYGYWGQGTQVTVSS”, the “polyreactivity (PSR sort gate)” value is on record as “high polyreactivity”.

Turning to “QVQLVESGGGLVQAGGSLRLSCAASGRIFRYNAMGWYRQAPGKETELVAVFSGSGGSTYYADSVKGRFTISRDNAKHTVYVQMNSLKPEDTAVYYCAAQFHVSWYNYWGQGTQVTVSS”, the “polyreactivity (PSR sort gate)” value is given as “low polyreactivity”. Then “QVQLVESGGGLVQAGGSLSLSCAASGRTFVPYAMGWDRQAPGKERELVAAISRSGSSTYYADSVKGRFTISRDNAKNTVYLQMNSLKPEDTAVYYCAADPVYYYIGDFNYWGQGTQVTVSS”, with “high polyreactivity”. On to “QVQHVESGGGLVQAGGSLRLSCAASGRIFHYNAMGWYRQAPGKERELVAAITWIGGSTYADSVKGRFTISRDNAKNTVYLQMNSLKPEDTAVYYCNARYIYRFDYWGQGTQVTVSS”, for which the “polyreactivity (PSR sort gate)” value was “low polyreactivity”.

For the sequence “QVQLVESGGGLVQAGGIIRLSCDASGSTFVIYAMGWYRQAPGKERELVAVIDYSDDSTYYADSVKGRFTISRDNAKNTGYLQLNSVKPEVTEVYFCAAYVYYAKGSFDYWGQGTQVTVSS”, the “polyreactivity (PSR sort gate)” value is listed as “high polyreactivity”. Then “QVQLVESGGGLVQAGGSLRLSCAASGGTFSGYTMGWYRQAPGKERELVAAINWSGGRTYYADSVKGRFTISRDNAKNTAYLQMNSLKPEDTAVYYSNKYGLYYREYDYWGQGTQVTVSS”, with “high polyreactivity”; and “QVQLVESGVGLVQAGGSLRLSCAASGFIFPTYAMGWYRQAPGKEREFVASITRRGGSTYYADSVKGRFTISRDNAKNSVYLQMNSLKPEDTAVYYCAAGYYGFRGGGSDYWGQGTQVTVSS”, with “high polyreactivity”. With “QVKLVESGGGLVQAGGSLRLSCAASGSIFLAYAMGWYRQAPGKEREFVAAISCSDGSTYYADSVKGRFTISRDNAKNTVYLQMNSLKPDDTAVFYCYKGASADDYDYCGQGTQVTVSS” the entry was “low polyreactivity”; with “QVQLVESGGGLVQAGGSLRLICAASGFIFASNAMGWYRQAPGTERELVASITRGGTTKYADSVKGRFTISRDNAKNTVYLQMNSLKPEDTAVYYCAKRYVRFPWRMDYWGQGTQVTVSS”, “high polyreactivity”; with “QVQREESGGGLVQAGGSLRLSCAASGLTFTTYAMGWYRQAPGKERELVAAISRRGSRTYYADSVKGRFTISRDNAKNTVYLQMNSLKPEDTAVYYCNALTGSFKTYSFDYWGQGSQVTVSS”, “high polyreactivity”. For the sequence “QVQLVESGGGLVQAGGSLRLSCAASGLIFRPYAMGWYRQAPGKERELFAGISFRGDSTYYADSVKGRFTISRDNAKNTVYLQMNCLKPEDTAVYYCDADVYIYWPPDKLLGYDYWGQGSQVTVSS”, the “polyreactivity (PSR sort gate)” value is listed as “low polyreactivity”. Then “QVQLVESGAGLVQAAGRLRLSCAASGNTFKVNVMGWYRPAPGKERQLVASITINDRSTYYADSVKGRFTISRDNAKNTVYLQMNSLKREDTEVYYCGGDLADFYPRFNYWGQGTQVSVSS”, with “low polyreactivity”. Turning to “QVQLVESGGGLVQAGGSLRLSCAASGLIFSRYTMGWNRQAPGKERELVAAISRSGTNTYYADSVKGRFTISRDNAKNTVYLQMNSLKPEDTAVYYCAARGYYRDYDSWGQGTQVTVSS”, the “polyreactivity (PSR sort gate)” value is “high polyreactivity”. Then “QVQLVESGGGLVQAGGSLRLSCAASGSIFSVNAMGWYRQAPGKERELVASINFRGGRTYYADSVKGRFTISRDNAKNTVYLQMNSLKPEDTAVYYCAAVISQTDTGYGPSFRVYYWGQGTQVTVSS”, with “high polyreactivity”. In the case of “QVQLQESGAGLVQAGGRLRLSCASSGTITVLYKMGWFRQAPGKEREFVASINYGTSTYYADSVKGRFTVSRDSATNHEYLQMISLKPEDTAVYYCAAAYRWQDVYRYWGQGSQVTVSS”, the “polyreactivity (PSR sort gate)” value is “low polyreactivity”. Then “QVQLVESGGGLVQAGGSLRLSCAASGIIFYRYVMGWYRQAHGKERELVAAINNDGASTHYADSVKGRFTISRDNAKNTVYLQMNSLKPEDTAVYYCATRDSLYYRYWSNNYWGQGTQVTVSS”, with “high polyreactivity”.
